Results from patent US6809076B2, “Use of anticoagulant agents in the extracorporeal treatment of blood” (Abbott GmbH & Co. KG, priority 2000, dated 2004).
Marks after values point to notes of the source that are not given here. PEG = not defined here

How the values were obtained:
[1] = target: T1, meizothrombin (Homo sapiens, UniProt P00734); assay: ECT (ecarin clotting time) determination in dialysis patients; format: in vivo
T1 construct: produces meizothrombin by cleavage of the prothromin in the plasma; from tissue; host or cells: citrated venous blood/plasma of human dialysis patients
Procedure: Determination of the ECT (ecarin clotting time) is based on the inhibition of the coagulation activity of meizothrombin. Ecarin, a purified fraction of Echis carinatus venom, produces meizothrombin by cleavage of the prothromin in the plasma. The time until fibrinogen coagulates induced by ecarin is measured.
The sample volume is about 100 μl.
Standard E: [c]=2500 ng/ml (1:20 dilution of standard C with normal human citrated plasma)
The measured results can also be stated as ratio and describe the ratio of the current value to the individual baseline value for a patient before the dialysis with PEG-hirudin.
The accuracy of measurement is +30% to −10%.

[2] = system: thrombin; conditions: human, in vivo, iv, 0.08 mg/kg
Procedure: (§1) 20 male and female patients between 18 and 75 years who must regularly undergo hemodialysis were selected. After an initial treatment with heparin (UFH), each patient was given an intravenous injection, immediately before the first dialysis during PEG-hirudin treatment, of a dose of 0.08 mg/kg of PEG-hirudin with a specific antithrombin activity of 13,354 ATU/mg of protein per kg of body weight. This was followed by hemodialysis with an average duration of 4 hours, 3×a week using a Hemophan low flux membrane in a GFS plus 16 dialyzer. When the dialysis was complete and before the subsequent dialysis sessions, firstly the PEG-hirudin concentrations in the patient's blood were determined. The measured values served as the basis for the amount of the PEG-hirudin doses to be administered immediately before each hemodialysis.
Determination of the anti-IIa activity is based on measurement of the activity remaining after addition of excess thrombin to the sample. Heparin and other non-thrombin serine proteases are neutralized before the assay by adding prothamine [sic] chloride and aprotinin to the sample. […]
The measurement is carried out in an ACL 3000 (incubation time: 120 s; inter-ramp interval: 3 s; delay time: 3 s; aquisition time: 120 s; speed: 600 rpm). The extinction is measured using a 405 nm filter at a constant rotor speed. […]

[3] = target: thrombin (Homo sapiens, UniProt P00734); assay: Specific antithrombin activity (ATU, WHO I thrombin standard); format: biochemical
Source text: The blood levels described above can usually be obtained with bolus doses in the range from about […] to about 1400 ATU/kg, preferably from about 400 ATU/kg to about 1200 ATU/kg and, in particular, from about 600 ATU/kg to about 1000 ATU/kg, of body weight. After adaptation it is possible to treat individuals with chronic renal insufficiency, with an average of three exracorporeal circulations a week, with a dosage of about 200 to about 1000 ATU/kg, preferably of about 200 ATU/kg to about 800 ATU/kg and, in particular, from about 400 ATU/kg to about 600 ATU/kg, of body weight. The abbreviation ATU stands for antithrombin units bas ed on the WHO I thrombin standard.

[4] = system: plasma fibrin formation; assay: APTT determination in dialysis patients; format: in vivo, human
Procedure: The determination of the activated partial thromboplastin time (APTT) is based on plasma fibrin formation induced by addition of a partial thromboplastin (Actin FS) and calicum [sic] ions to the plasma. Ellagic acid is used as activator.
The sample volume is at least 450 μl.
The controls used are control plasma in the normal range, control plasma in the therapeutic range, control plasma in the low therapeutic range and a quality control in the normal range, for example the controls commercially available from Dade citrol 1, Citrol 2, Citrol 3 and Coag Trol N.
The measurement is carried out in an ACL 3000.
The ACL 3000 is a completely automatic, microcomputer-controlled centrifugal analysis system. After the start of the analysis cycle, sample and Actin are pipetted separately into the half-cuvettes of a reaction rotor made of acrylic glass with 20 cuvettes, and are mixed and then incubate d. After the incubation, calcium chloride is pipetted into the cuvettes, mixed and measured. Measurements are carried out while the rotor is rotating. The light source for the nephelometric measurement is a light-emitting diode (LED) whose light beam is directed via a light guide system (γ=660 nm) onto the measuring cuvettes. The scattered light distribution is measured at an angle of 90° to the light source with the aid of a semiconductor sensor located underneath the rotor carrier. The measured results can also be stated as ratio and describe the ratio of the current value to the individual baseline value for a patient before the dialysis with PEG-hirudin.
The accuracy of measurement is +10% to −10%.

[5] = system: vascular complications; assay: Prophylaxis of vascular complications between hemodialysis sessions; format: in vivo, human; conditions: residual concentration in blood between the hemodialysis sessions, 20 patients
Procedure: as §1

[6] = dialysis 04, first with PEG-hirudin (0.08 mg/kg i.v.)
[7] = dialysis 08, PEG-hirudin i.v. before each dialysis
[8] = dialysis 13, PEG-hirudin i.v. before each dialysis
[9] = dialysis 05, PEG-hirudin i.v. before each dialysis
[10] = dialysis 06, PEG-hirudin i.v. before each dialysis
[11] = dialysis 07, PEG-hirudin i.v. before each dialysis
[12] = dialysis 09, PEG-hirudin i.v. before each dialysis
[13] = dialysis 10, PEG-hirudin i.v. before each dialysis
[14] = dialysis 11, PEG-hirudin i.v. before each dialysis
[15] = dialysis 12, PEG-hirudin i.v. before each dialysis

B1: PEG-hirudin: polyethylene glycol conjugates of hirudin; preferably SEQ ID NO:1 polypeptide with PEG residues on lysine 27 and lysine 33 (conjugate)
chain: VVYTDCTESGQNLCLCEGSNVCGQGNK(PEG)CILGSK(PEG)GERNQCVTGEGTPRPQSHNDGDFEEIPEEYLQ
modifications: ends and bridges not checked
ECT Bolus 5' after admin. [1, 6]: 3.0 [s] [ratio] | ECT Bolus 5' after admin. [1, 7]: 3.1 [s] [ratio] | ECT Bolus 5' after admin. [1, 8]: 3.1 [s] [ratio] | Anti-IIa After dialysis [2]: 818 ng/mL | Anti-IIa Bolus 5' after admin. ([2]; 5 min): 1298 ng/mL | specific antithrombin activity ([3]; PEG-hirudin given to the patients): 13,354 ATU/mg of protein | specific activity ([3]; Standard A, 26.6 mg/ml): 11,696 ATU/mg of protein | APTT After dialysis [4, 6]: 2.2 ratio | APTT Bolus 5' after admin. [4, 6]: 2.5 ratio | APTT Before dialysis ([4]; dialysis 04, first with PEG-hirudin (0.08 mg/kg i.v.), before dose): 1.0 ratio | APTT After dialysis [4, 9]: 2.3 ratio | APTT Before dialysis [4, 9]: 1.7 ratio | APTT After dialysis [4, 10]: 2.3 ratio | APTT Before dialysis [4, 10]: 1.9 ratio | APTT After dialysis [4, 11]: 2.2 ratio | APTT Before dialysis [4, 11]: 1.9 ratio | APTT After dialysis [4, 7]: 2.5 ratio | APTT Before dialysis [4, 7]: 2.0 ratio | APTT Bolus 5' after admin. [4, 7]: 2.6 ratio | APTT After dialysis [4, 12]: 2.4 ratio | APTT Before dialysis [4, 12]: 2.0 ratio | APTT After dialysis [4, 13]: 2.3 ratio | APTT Before dialysis [4, 13]: 2.0 ratio | APTT After dialysis [4, 14]: 2.3 ratio | APTT Before dialysis [4, 14]: 2.0 ratio | APTT After dialysis [4, 15]: 2.3 ratio | APTT Before dialysis [4, 15]: 2.0 ratio | APTT After dialysis [4, 8]: 2.2 ratio | APTT Before dialysis [4, 8]: 1.9 ratio | APTT Bolus 5' after admin. [4, 8]: 2.5 ratio | prophylactic protection against vascular complications [5]: ensured prophylactic protection against vascular complications
